Measurements: US20190112382A1 (published 2019)

T1: extracellular domain of human CD269 (BCMA, TNFRSF17) (human, UniProt Q02223 4-54)
T1 construct: also called hBCMA; human BCMA
T1 sequence: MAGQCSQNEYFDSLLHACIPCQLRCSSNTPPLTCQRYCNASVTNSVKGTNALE


Tests used:
[1] = target: T1, extracellular domain of human CD269 …; test: SPR, IgG immobilised on GLH chip, BCMA in the mobile phase (n = 3)
[2] = target: T2, extracellular domain of cynomolgous BCMA (cynomolgous, UniProt A0A2K5UD97 1-53); test: SPR, IgG immobilised on GLH chip, BCMA in the mobile phase (n = 2)
T2 construct: Used coated on plates in ELISA and in the mobile phase in SPR; also called cyBCMA; cynoBCMA
T2 sequence (A0A2K5UD97 entry or part of it limits assumed, form in doubt): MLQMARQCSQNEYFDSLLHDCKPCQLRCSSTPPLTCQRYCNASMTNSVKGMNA

Row | Binder | Kd [1] [nM] | Kd [2] [nM]
1 | J22.9-H (antibody, V domains shown) VH: EVQLVESGGGLVQPGGSLRLSCAASGFTFSRYWMSWVRQAPGKGLVWVGEINPDSSTINYAPSLKDKFTISRDNAKNTLYLQMNSLRAEDTAVYYCASLYYDYGDAMDYWGQGTLVTVSS VL: EIVMTQSPATLSVSPGERATLSCKASQSVDSNVAWYQQKPGQAPRALIYSASLRFSGIPARFSGSGSGTEFTLTISSLQSEDFAVYYCQQYNNYPLTFGAGTKLELKR | 15 | 200
2 | J22.9-FSY (antibody, V domains shown) VH: EVQLVESGGGLVQPGGSLRLSCAASGFTFSRYWFSWVRQAPGKGLVWVGEINPSSSTINYAPSLKDKFTISRDNAKNTLYLQMNSLRAEDTAVYYCASLYYDYGDAYDYWGQGTLVTVSS VL: EIVMTQSPATLSVSPGERATLSCKASQSVESNVAWYQQKPGQAPRALIYSASLRFSGIPARFSGSGSGTEFTLTISSLQSEDFAVYYCQQYNNYPLTFGAGTKLELK | 2.2 | 20
3 | J22.9-ISY (antibody, V domains shown) VH: EVQLVESGGGLVQPGGSLRLSCAASGFTFSRYWISWVRQAPGKGLVWVGEINPSSSTINYAPSLKDKFTISRDNAKNTLYLQMNSLRAEDTAVYYCASLYYDYGDAYDYWGQGTLVTVSS VL: EIVMTQSPATLSVSPGERATLSCKASQSVESNVAWYQQKPGQAPRALIYSASLRFSGIPARFSGSGSGTEFTLTISSLQSEDFAVYYCQQYNNYPLTFGAGTKLELK | 2 | 17
